According to publication PMC11410943:

Test system: Cn1c(=O)ccc2ccc(F)c(CCNC[C@H]3CN(c4cnc5c(n4)NC(=O)CO5)C(=O)O3)c21
Experiment: MATE2-K transport in HEK293 cells
Type: in vitro ADME, human
Settings: other: HEK293 cells; 37.0 °C

With MATE2-K (Homo sapiens) as the substance, how does the Km read?
The Km was 469 µM.

What about the Vmax of the same substance?
The Vmax was 111 pmol/mg/min.
